Data as given in paper PMC6063412 (2018).

T1: recombinant human PDGF-CC core domain protein (activated PDGF-CC, growth factor domain) (human, UniProt Q9NRA1 230-345)
T1 chain: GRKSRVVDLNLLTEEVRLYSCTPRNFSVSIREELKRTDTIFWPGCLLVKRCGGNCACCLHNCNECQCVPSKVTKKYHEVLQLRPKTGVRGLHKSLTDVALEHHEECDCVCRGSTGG

B1: monoclonal anti-PDGF-CC antibody 6B3 (antibody, V domains shown)
VH: QVQLQQSGVEVARPGASVKLSCKASGYTFRSYGITWVRQRTGQGLEWIGEIYPRSGKTYYNEKFKGKATLTADTSSSTVYMELRSLTSEDSAVYFCAREGYGYDGGYFDYWGQGTTLTVSS
VL: DIVMTQSPSSLAMSVGQKVTMSCKSSQSLLNSRNQKNYLAWYQQKPGQSPKLLVYFASTRESGVPDRFTGSGSGTDFTLTISSVQAEDLAVYYCQQHYSTPLTFGAGTKLELK
B2: monoclonal anti-PDGF-CC antibody 11F5 (antibody, V domains shown)
VH: QVQLQQSGAELARPGASVKLSCKASGYIFISYGISWVKQRTGQGLEWIGEIYPRSGKTYYNEKFKDKAALTADKSSSIAYMELRSLTSEDSAVYFCAREGYGYDGGYFDYWGQGTILTVSS
VL: DIVMTQSPSSLAMSVGQKVAVSCKSSQSLLNSSNQKNYLAWYQQKPGQSPKLLVYFASTRDSGVPDRFTGSGSGTDFTLTISSVQAEDLAVYYCQQHYSTPLTFGAGTKLELK
B3: monoclonal anti-PDGF-CC antibody 19C7 (antibody, V domains shown)
VH: QVQLQQSGVEVARPGASVKLSCKASGYTFRSYGITWVRQRTGQGLEWIGEIYPRSGKTYYNEKFKGKATLTADTSSSTVYMELRSLTSEDSAVYFCAREGYGYDGGYFDYWGQGTTLTVSS
VL: DIVMTQSPSSLAMSVGQKVTMSCKSSQSLLNSRNQKNYLAWYQQKPGQSPKLLVYFASTRESGVPDRFTGSGSGTDFTLTISSVQAEDLAVYYCQQHYSTPLTFGAGTKLELK

Target: T1, recombinant human PDGF-CC core domain …
Assay: SPR

| Binder | koff [s⁻¹] |
| --- | --- |
| B1 | 0.0015 |
| B2 | 0.00058 |
| B3 | 0.0016 |
